In the Immune Epitope Database (IEDB) one finds Kd data, which are given here for seven sequences.

Bounds are passed on as bounds.

Assay [1] concerns the target HLA-B*27:05. Put plainly: IEDB peptide-MHC binding, purified MHC/competitive/fluorescence; filed as Kd, often an IC50 or EC50 that approximates it; ≥ and ≤ were set here for values at or beyond the usual limits of such assays. The following applies: source organism: Influenza A virus (A/swine/Hong Kong/81/1978(H3N2)).
In assay [2] the target is HLA-B*07:02. The assay is described as above. The conditions noted are these: source organism: Human herpesvirus 4 strain B95-8.
The target of assay [3] is HLA-B*51:01. Put plainly: IEDB peptide-MHC binding, purified MHC/direct/fluorescence; filed as Kd, often an IC50 or EC50 that approximates it; ≥ and ≤ were set here for values at or beyond the usual limits of such assays. The following applies: source organism: human gammaherpesvirus 4.
The target of assay [4] is HLA-A*11:01. Put plainly: IEDB peptide-MHC binding, purified MHC/competitive/fluorescence; filed as Kd, often an IC50 or EC50 that approximates it; ≥ and ≤ were set here for values at or beyond the usual limits of such assays. The conditions noted are these: source organism: Influenza A virus (A/swine/Scotland/410440/94(H1N2)).
For a further assay, the target named is HLA-B*15:17. Described as above. The following applies: source organism: Vaccinia virus WR.
The next assay addresses HLA-A*31:01. Described as above. The following applies: source organism: Vaccinia virus WR.
In assay [5] the target is HLA-A*02:06. The assay is described as above. The conditions noted are these: source organism: Vaccinia virus WR.
The target in assay [6] is HLA-A*68:02. The description is as above. The following applies: source organism: Vaccinia virus WR.
The target in the next assay is HLA-B*48:01. In words: IEDB peptide-MHC binding, purified MHC/direct/fluorescence; filed as Kd, often an IC50 or EC50 that approximates it; ≥ and ≤ were set here for values at or beyond the usual limits of such assays. The following applies: source organism: Camelpox virus M-96.
The target of another assay is HLA-A*01:01. The assay is described as above. The following applies: source organism: Camelpox virus M-96.
In assay [7] the target is HLA-B*18:01. The description is as above. The following applies: source organism: Camelpox virus M-96.
The target in a further assay is HLA-B*40:01. The description is as above. The following applies: source organism: Camelpox virus M-96.
For assay [8], the target named is HLA-A*03:01. The assay is described as above. The conditions noted are these: source organism: Camelpox virus M-96.
Assay [9] addresses HLA-B*15:01. The assay is described as above. The conditions noted are these: source organism: Camelpox virus M-96.
The target in another assay is HLA-B*58:01. Described as above. The conditions noted are these: source organism: Camelpox virus M-96.
Assay [10] addresses HLA-B*27:05. The description is as above. The following applies: source organism: Camelpox virus M-96.
A further assay addresses HLA-A*69:01. Described as above. The conditions noted are these: source organism: Camelpox virus M-96.
The target of assay [11] is HLA-B*46:01. The description is as above. The conditions noted are these: source organism: Camelpox virus M-96.
For assay [12], the target named is HLA-B*57:01. Described as above. The conditions noted are these: source organism: Camelpox virus M-96.
Assay [13] has as its target HLA-B*07:02. Described as above. The following applies: source organism: Camelpox virus M-96.
Assay [14] deals with HLA-A*11:01. The description is as above. The conditions noted are these: source organism: Camelpox virus M-96.
In assay [15] the target is HLA-A*02:01. The assay is described as above. The following applies: source organism: Camelpox virus M-96.
In assay [16] the target is HLA-B*18:01. In words: IEDB peptide-MHC binding, purified MHC/competitive/fluorescence; filed as Kd, often an IC50 or EC50 that approximates it; ≥ and ≤ were set here for values at or beyond the usual limits of such assays.
In a further assay the target is HLA-A*02:11. Described as above.
In assay [17] the target is HLA-A*03:01. The description is as above.
Assay [18] addresses HLA-B*51:01. The assay is described as above.
For assay [19], the target named is HLA-B*15:01. Described as above.
For a further assay, the target named is HLA-A*02:19. Described as above.
The target in another assay is HLA-B*39:01. Described as above.
A further assay addresses HLA-A*29:02. The assay is described as above.
A further assay concerns the target HLA-A*02:12. The description is as above.
The target in assay [20] is HLA-B*46:01. The description is as above.
Assay [21] concerns the target HLA-B*57:01. Described as above.
A further assay has as its target HLA-B*27:03. Described as above.
Assay [22] addresses HLA-A*02:03. Described as above.
The target of the next assay is HLA-A*24:03. The assay is described as above.
For another assay, the target named is HLA-A*26:01. The description is as above.
For assay [23], the target named is HLA-A*02:01. The assay is described as above.
Assay [24] concerns the target HLA-A*02:06. Put plainly: IEDB peptide-MHC binding, purified MHC/competitive/radioactivity; filed as Kd, often an IC50 or EC50 that approximates it; ≥ and ≤ were set here for values at or beyond the usual limits of such assays. The conditions noted are these: source organism: Vaccinia virus WR.
The target of a further assay is HLA-A*02:02. The assay is described as above. The conditions noted are these: source organism: Vaccinia virus WR.
Assay [25] addresses HLA-A*68:02. The description is as above. The following applies: source organism: Vaccinia virus WR.
For assay [26], the target named is HLA-A*02:03. The description is as above. The conditions noted are these: source organism: Vaccinia virus WR.
A further assay has as its target HLA-C*03:03. In words: IEDB peptide-MHC binding, purified MHC/direct/fluorescence; filed as Kd, often an IC50 or EC50 that approximates it; ≥ and ≤ were set here for values at or beyond the usual limits of such assays. The following applies: source organism: Vaccinia virus WR.
Setting [27] is: source organism: Yersinia pestis Antiqua.
[28] abbreviates: source organism: Vibrio cholerae 2740-80.

Regarding GRIQDLEKY, in the assay with HLA-B*27:05 [1], the dissociation constant (Kd) – broadly, the concentration at which binding is half-saturated – came out at 112 nM.

Consider HPVGEADYFEY, for which the Kd with HLA-B*07:02 [2] and with HLA-B*51:01 [3] was no less than 20 µM in each case.

As to KVYKTYFEK, in the assay with HLA-A*11:01 [4], the Kd was found to be 4.7 nM.

Consider LTFLHTLYK, for which the dissociation constant Kd was 226 nM with HLA-B*15:17; 224 nM with HLA-A*31:01; 1090 nM in the assay with HLA-A*02:06 [5]; 1090 nM with HLA-A*68:02 [6]; no less than 20 µM with HLA-B*48:01; no less than 20 µM in the assay with HLA-A*01:01. The Kd was no less than 20 µM in the assay with HLA-B*18:01 [7]; no less than 20 µM with HLA-B*40:01; 160 nM in the assay with HLA-A*03:01 [8]; no less than 20 µM with HLA-B*15:01 [9]; no less than 20 µM with HLA-B*58:01; no less than 20 µM with HLA-B*27:05 [10]. The Kd with HLA-A*69:01 is no less than 20 µM; with HLA-B*46:01 [11] it was no less than 20 µM; with HLA-B*57:01 [12], no less than 20 µM; with HLA-B*07:02 [13], no less than 20 µM; with HLA-A*11:01 [14] it was 104 nM; with HLA-A*02:01 [15], no less than 20 µM.

With PLTNQRYRV, the Kd is no less than 20 µM with HLA-B*18:01 [16] (setting [27]); no less than 20 µM with HLA-A*02:11 (setting [27]); no less than 20 µM in the assay with HLA-A*03:01 [17] (setting [27]); no less than 20 µM with HLA-B*51:01 [18] (setting [27]); no less than 20 µM with HLA-B*15:01 [19] (setting [27]); 797 nM in the assay with HLA-A*02:19 (setting [27]). Moreover, the Kd with HLA-B*39:01 (setting [27]), in the assay with HLA-A*29:02 (setting [27]), with HLA-A*02:12 (setting [27]), with HLA-B*46:01 [20] (setting [27]), with HLA-B*57:01 [21] (setting [27]) and with HLA-B*27:03 (setting [27]) was no less than 20 µM in each case. The Kd in the assay with HLA-A*02:03 [22] (setting [27]), with HLA-A*24:03 (setting [27]), with HLA-A*26:01 (setting [27]) and with HLA-A*02:01 [23] (setting [27]) was no less than 20 µM each time.

On to YEPEMQAQV, for which the Kd with HLA-B*18:01 [16] (setting [28]) was no less than 20 µM; in the assay with HLA-A*02:11 (setting [28]), no less than 20 µM; in the assay with HLA-A*03:01 [17] (setting [28]) it was no less than 20 µM; in the assay with HLA-B*51:01 [18] (setting [28]) it was no less than 20 µM; in the assay with HLA-B*15:01 [19] (setting [28]), no less than 20 µM; in the assay with HLA-A*02:19 (setting [28]), 845 nM. In addition, the Kd with HLA-B*39:01 (setting [28]), with HLA-A*29:02 (setting [28]), in the assay with HLA-A*02:12 (setting [28]), in the assay with HLA-B*46:01 [20] (setting [28]), with HLA-B*57:01 [21] (setting [28]) and in the assay with HLA-B*27:03 (setting [28]) was no less than 20 µM each time. Besides, the Kd with HLA-A*02:03 [22] (setting [28]), with HLA-A*24:03 (setting [28]), with HLA-A*26:01 (setting [28]) and in the assay with HLA-A*02:01 [23] (setting [28]) was no less than 20 µM throughout.

Consider YIYGIPLSL, for which the dissociation constant (Kd) in the assay with HLA-A*02:06 [24] was 11.5 µM; with HLA-A*02:02, 460 nM; with HLA-A*68:02 [25] it was 1870 nM; with HLA-A*02:03 [26], 13.1 µM; with HLA-C*03:03, no more than 1 nM.
